The values that follow come from publication PMC10558804.

The term stoichiometry N denotes the number of molecules, sites or subunits per partner or assembly.

Holding throughout (experiment): native gel or EMSA; blue native-PAGE (BN-PAGE) of membrane proteins extracted from whole-cell lysates of transfected HEK 293 cells, 10 mM n-dodecyl-β-maltoside, 4 to 16% (or 3 to 12%) Bis/Tris gels, Western blot with anti-GluA1 or anti-GluA2; AMPAR subunit expressed alone or with an auxiliary subunit (cDNA 1:1); oligomeric states (tetramer, dimer, monomer) by molecular mass; tetramer fraction from band intensities; association of an auxiliary subunit read from the upshift of the tetramer band

In experiment [1] the target is GluA1(G816A)-TARP γ-2 tandem (rat (Rattus norvegicus) | rat).
Experiment [2] addresses GluA1-ΔECD (GluA1 lacking the extracellular ATD and LBD) (rat (Rattus norvegicus)).
The target of experiment [3] is GluA1 (rat, flip splice variant), wild type (rat (Rattus norvegicus)).
The target in experiment [4] is GluA2(R)(G823A) (rat (Rattus norvegicus)).
In experiment [5] the target is GluA2(R) (rat, flip splice variant, edited (R) form) (rat (Rattus norvegicus)).
Experiment [6] deals with GluA1(G816A) (rat (Rattus norvegicus)).
Experiment [7] concerns the target GluA1-TARP γ-2 tandem (rat (Rattus norvegicus) | rat).

GluA1(G816A)-TARP γ-2 tandem: in experiment [1], the stoichiometry N was determined as 4.

On to “GluA1-ΔECD (GluA1 lacking the extracellular ATD and LBD) (domain or fragment)”, for which the stoichiometry N in experiment [2] was found to be 4. On to “GluA1 (rat, flip splice variant), wild type (receptor)”, for which, in experiment [3], the stoichiometry N came to 4 and the tetramer fraction came out at 0.84. GluA2(R)(G823A) (receptor): the tetramer fraction in experiment [4] is 0.45. With “GluA2(R) (rat, flip splice variant, edited (R) form) (receptor)”, in experiment [5], the stoichiometry N was determined as 4 and the tetramer fraction was 0.89. For GluA1(G816A) (receptor), in experiment [6], the tetramer fraction stood at 0.52. As to GluA1-TARP γ-2 tandem, the stoichiometry N in experiment [7] is 4.
